Experimental data: the supplement of paper PMC11246515
± gives the standard deviation of the averaged measurements.

Assay: total protein half-life in vivo (active degradation + dilution); higher = more stable protein
[1] = E. coli NCM3722 delta-clpP delta-lon delta-hslV, growth: N-lim chemostat, doubling time 6 h
[2] = E. coli NCM3722 delta-smpB, growth: N-lim chemostat, doubling time 6 h
[3] = wild type E. coli NCM3722, growth: C-lim chemostat, doubling time 6 h
[4] = wild type E. coli NCM3722, growth: C-lim chemostat, doubling time 12 h
[5] = E. coli NCM3722 delta-clpP, growth: N-lim chemostat, doubling time 6 h
[6] = E. coli NCM3722 delta-hslV, growth: N-lim chemostat, doubling time 6 h
[7] = E. coli NCM3722 delta-lon, growth: N-lim chemostat, doubling time 6 h
[8] = wild type E. coli NCM3722, growth: C-lim chemostat, doubling time 3 h
[9] = wild type E. coli NCM3722, growth: N-lim chemostat, doubling time 6 h
[10] = wild type E. coli NCM3722, growth: N-lim chemostat, doubling time 12 h
[11] = wild type E. coli NCM3722, growth: P-lim chemostat, doubling time 6 h
[12] = wild type E. coli NCM3722, growth: P-lim chemostat, doubling time 12 h

MNGKLQSSDVKNETPYNIPLLINENVISSGISLISLWHTYADEHYRVIWPRDKKKPLIANSWVAVYTVQGCGKILLKNGEQITLHGNCIIFLKPMDIHSYHCEGLVWEQYWMEFTPTSMMDIPVGQQSVIYNGEIYNQELTEVAELITSPEAIKNNLAVAFLTKIIYQWICLMYADGKKDPQRRQIEKLIATLHASLQQRWSVADMAATIPCSEAWLRRLFLRYTGKTPKEYYLDARLDLALSLLKQQGNSVGEVADTLNFFDSFHFSKAFKHKFGYAPSAVLKNTDQHPTDASPHN
total protein half-life in vivo [1]: 5.49 ± 0.17 h
total protein half-life in vivo [2]: 1.33 ± 0.21 h

MNGTIYQRIEDNAHFRELVEKRQRFATILSIIMLAVYIGFILLIAFAPGWLGTPLNPNTSVTRGIPIGVGVIVISFVLTGIYIWRANGEFDRLNNEVLHEVQAS [P0AF54]
total protein half-life in vivo [3]: 5.84 ± 0.1 h
total protein half-life in vivo [4]: 8.72 ± 0.83 h

MNHSLKPWNTFGIDHNAQHIVCAEDEQQLLNAWQYATAEGQPVLILGEGSNVLFLEDYRGTVIINRIKGIEIHDEPDAWYLHVGAGENWHRLVKYTLQEGMPGLENLALIPGCVGSSPIQNIGAYGVELQRVCAYVDSVELATGKQVRLTAKECRFGYRDSIFKHEYQDRFAIVAVGLRLPKEWQPVLTYGDLTRLDPTTVTPQQVFNAVCHMRTTKLPDPKVNGNAGSFFKNPVVSAETAKALLSQFPTAPNYPQADGSVKLAAGWLIDQCQLKGMQIGGAAVHRQQALVLINEDNAKSEDVVQLAHHVRQKVGEKFNVWLEPEVRFIGASGEVSAVETIS
total protein half-life in vivo [1]: 4.93 ± 1.3 h
total protein half-life in vivo [5]: 3.45 ± 0.048 h
total protein half-life in vivo [6]: 3.8 ± 0.13 h
total protein half-life in vivo [7]: 3.89 ± 0.49 h
total protein half-life in vivo [2]: 3.52 ± 0.22 h
total protein half-life in vivo [8]: 2.93 ± 0.053 h
total protein half-life in vivo [3]: 4.83 ± 0.63 h
total protein half-life in vivo [4]: 9.87 ± 0.28 h
total protein half-life in vivo [9]: 3.66 ± 0.11 h
total protein half-life in vivo [10]: 5.41 ± 0.096 h
total protein half-life in vivo [11]: 4.81 ± 0.36 h
total protein half-life in vivo [12]: 8.99 ± 0.82 h

MNIENLKTKAEADISEYITKKIIELKKKTGKEVTSIQFTAREKMTGLESYDVKINLI
total protein half-life in vivo [1]: 6.69 ± 0.78 h
total protein half-life in vivo [5]: 6.7 ± 1.3 h
total protein half-life in vivo [6]: 5.74 ± 0.34 h
total protein half-life in vivo [7]: 6.46 ± 0.88 h
total protein half-life in vivo [2]: 5.57 ± 0.3 h
total protein half-life in vivo [8]: 3.24 ± 0.47 h
total protein half-life in vivo [3]: 5.85 ± 0.45 h
total protein half-life in vivo [4]: 10.6 ± 1.6 h
total protein half-life in vivo [9]: 5.71 ± 0.32 h
total protein half-life in vivo [10]: 13.6 ± 3.4 h
total protein half-life in vivo [11]: 5.4 ± 0.96 h

MNIKGKALLAGCIALAFSNMALAEDIKVAVVGAMSGPVAQYGDQEFTGAEQAVADINAKGGIKGNKLQIVKYDDACDPKQAVAVANKVVNDGIKYVIGHLCSSSTQPASDIYEDEGILMITPAATAPELTARGYQLILRTTGLDSDQGPTAAKYILEKVKPQRIAIVHDKQQYGEGLARAVQDGLKKGNANVVFFDGITAGEKDFSTLVARLKKENIDFVYYGGYHPEMGQILRQARAAGLKTQFMGPEGVANVSLSNIAGESAEGLLVTKPKNYDQVPANKPIVDAIKAKKQDPSGAFVWTTYAALQSLQAGLNQSDDPAEIAKYLKANSVDTVMGPLTWDEKGDLKGFEFGVFDWHANGTATDAK [P0AD96]
total protein half-life in vivo [1]: 6.22 ± 0.16 h
total protein half-life in vivo [5]: 5.81 ± 0.64 h
total protein half-life in vivo [6]: 6.127 ± 0.057 h
total protein half-life in vivo [7]: 6.35 ± 0.39 h
total protein half-life in vivo [2]: 5.96 ± 0.19 h
total protein half-life in vivo [8]: 3.27 ± 0.18 h
total protein half-life in vivo [3]: 6.24 ± 0.17 h
total protein half-life in vivo [4]: 11.46 ± 0.034 h
total protein half-life in vivo [9]: 6.02 ± 0.32 h
total protein half-life in vivo [10]: 12.23 ± 0.02 h
total protein half-life in vivo [11]: 5.67 ± 0.064 h
total protein half-life in vivo [12]: 13 ± 0.45 h

MNIKIAALTLAIASGISAQWAIAADMPASPAPTIPVKQYVTQVNADNSVTFRYFAPGAKNVSVVVGVPVPDNIHPMTKDEAGVWSWRTPILKGNLYEYFFNVDGVRSIDTGTAMTNPQRQVNSSMILVPGSYLDTRSVAHGDLIAITYHSNALQSERQMYVWTPPGYTGMGEPLPVLYFYHGFGDTGRSAIDQGRIPQIMDNLLAEGKIKPMLVVIPDTETDAKGIIPEDFVPQERRKVFYPLNAKAADRELMNDIIPLISKRFNVRKDADGRALAGLSQGGYQALVSGMNHLESFGWLATFSGVTTTTVPDEGVAARLNDPAAINQQLRNFTVVVGDKDVVTGKDIAGLKTELEQKKINFDYQEYPGLNHEMDVWRPAYAAFVQKLFK
total protein half-life in vivo [1]: 4.45 h
total protein half-life in vivo [2]: 3.45 ± 0.76 h

MNIPQLTALCLRYHGVLLDASEEVVHVAVVDAPSHELLDALHFATTKRIEITCWTRQQMEGHASRTQQTLPVAVQEKHQPKAELLTRTLQSALEQRASDIHIEPADNAYRIRLRIDGVLHPLPDVSPDAGVALTARLKVLGNLDIAEHRLPQDGQFTVELAGNAVSFRIATLPCRGGEKVVLRLLQQVGQALDVNTLGMQPLQLADFAHALQQPQGLVLVTGPTGSGKTVTLYSALQKLNTADINICSVEDPVEIPIAGLNQTQIHPRAGLTFQGVLRALLRQDPDVIMIGEIRDGETAEIAIKAAQTGHLVLSTLHTNSTCETLVRLQQMGVARWMLSSALTLVIAQRLVRKLCPHCRRQQGEPIHIPDNVWPSPLPHWQAPGCVHCYHGFYGRTALFEVLPITPVIRQLISANTDVESLETHARQAGMRTLFENGCLAVEQGLTTFEELIRVLGMPHGE
total protein half-life in vivo [1]: 3.89 h

MNIRDLEYLVALAEHRHFRRAADSCHVSQPTLSGQIRKLEDELGVMLLERTSRKVLFTQAGMLLVDQARTVLREVKVLKEMASQQGETMSGPLHIGLIPTVGPYLLPHIIPMLHQTFPKLEMYLHEAQTHQLLAQLDSGKLDCVILALVKESEAFIEVPLFDEPMLLAIYEDHPWANRECVPMADLAGEKLLMLEDGHCLRDQAMGFCFEAGADEDTHFRATSLETLRNMVAAGSGITLLPALAVPPERKRDGVVYLPCIKPEPRRTIGLVYRPGSPLRSRYEQLAEAIRARMDGHFDKVLKQAV [P0ACQ4]
total protein half-life in vivo [1]: 6.42 ± 0.14 h
total protein half-life in vivo [5]: 6.57 ± 1.4 h
total protein half-life in vivo [6]: 4.79 ± 0.37 h
total protein half-life in vivo [7]: 4.56 ± 0.12 h
total protein half-life in vivo [2]: 4.11 ± 0.24 h
total protein half-life in vivo [8]: 2.62 ± 0.37 h
total protein half-life in vivo [3]: 5.1 ± 0.76 h
total protein half-life in vivo [4]: 9.67 ± 2.1 h
total protein half-life in vivo [9]: 4.51 ± 0.26 h
total protein half-life in vivo [10]: 10.4 ± 2.9 h
total protein half-life in vivo [11]: 4.768 ± 0.012 h
total protein half-life in vivo [12]: 9.98 ± 0.13 h

MNIYRLSFVSCLVMAMPCAMAVEFNLNVLDKSMRDRIDISLLKEKGVIAPGEYFVSVAVNNNKISNGQKINWQKKGDKTIPCINDSLVDKFGLKPDIRQSLPQIDRCIDFSSRPEMLFNFDQANQQLNISIPQAWLAWHSENWAPPSTWKEGVAGVLMDYNLFASSYRPQDGSSSTNLNAYGTAGINAGAWRLRSDYQLNKTDSEDNHDQSGGISRTYLFRPLPQLGSKLTLGETDFSSNIFDGFSYTGAALASDDRMLPWELRGYAPQISGIAQTNATVTISQSGRVIYQKKVPPGPFIIDDLNQSVQGTLDVKVTEEDGRVNNFQVSAASTPFLTRQGQVRYKLAAGQPRPSMSHQTENETFFSNEVSWGMLSNTSLYGGLLISDDDYHSAAMGIGQNMLWLGALSFDVTWASSHFDTQQDERGLSYRFNYSKQVDATNSTISLAAYRFSDRHFHSYANYLDHKYNDSDAQDEKQTISLSVGQPITPLNLNLYANLLHQTWWNADASTTANITAGFNVDIGDWRDISISTSFNTTHYEDKDRDNQIYLSISLPFGNGGRVGYDMQNSSHSTIHRMSWNDTLDERNSWGMSAGLQSDRPDNGAQVSGNYQHLSSAGEWDISGTYAASDYSSVSSSWSGSFTATQYGAAFHRRSSTNEPRLMVSTDGVADIPVQGNLDYTNHFGIAVVPLISSYQPSTVAVNMNDLPDGVTVAENVIKETWIEGAIGYKSLASRSGKDVNVIIRNASGQFPPLGADIRQDDSGISVGMVGEEGHAWLSGVAENQLFTVVWGEQSCIIHLPERLEDTTKRLILPCH
total protein half-life in vivo [1]: 3.41 ± 0.16 h
total protein half-life in vivo [5]: 2.97 h
total protein half-life in vivo [3]: 4.23 h
total protein half-life in vivo [9]: 2.94 h
total protein half-life in vivo [10]: 3.79 h
total protein half-life in vivo [11]: 3.94 h
total protein half-life in vivo [12]: 11 ± 0.78 h
